# Results taken from patent US12059458B2, “Peptides and combination of peptides and scaffolds for use in immunotherapy against renal cell carcinoma (RCC) and other cancers” (Immatics Biotechnologies GmbH, priority 2015, dated 2024).
# Assays:
# HLA-A*02:01 = HLA-A*02:01 (Homo sapiens, UniProt P04439, D140Y/D185E/D98H/E176V/E277Q/G131W/G231S/I119V/I121R/I166T/I218V/L300P/L318F/N151K/N90K/P208A/P217A/Q86G/Q94H/R138H/R169H/T345S); assay: MHC binding assay (UV-ligand exchange, beta2m ELISA, peptide exchange yield); settings: binding to HLA-A*02:01 ranged by peptide exchange yield, β2m ELISA
# From the text: Candidate peptides for T cell based therapies according to the present invention were further tested for their MHC binding capacity (affinity). The individual peptide-MHC complexes were produced by UV-ligand exchange, where a UV-sensitive peptide is cleaved upon UV-irradiation, and exchanged with the peptide of interest as analyzed. Only peptide candidates that can effectively bind and stabilize the peptide-receptive MHC molecules prevent dissociation of the MHC complexes. To determine the yield of the exchange reaction, an ELISA was performed based on the detection of the light chain (β2m) of stabilized MHC complexes. The assay was performed as generally described in Rodenko et al. (Rodenko et al., 2006).
# 96 well MAXISorp plates (NUNC) were coated over night with 2 ug/ml streptavidin in PBS at room temperature, washed 4× and blocked for 1 h at 37° C. in 2% BSA containing blocking buffer. Refolded HLA-A*02:01/MLA-001 monomers served as standards, covering the range of 15-500 ng/ml. Peptide-MHC monomers of the UV-exchange reaction were diluted 100 fold in blocking buffer. Samples were incubated for 1 h at 37° C., washed four times, incubated with 2 ug/ml HRP conjugated anti-β2m for 1h at 37° C., washed again and detected with TMB solution that is stopped with […]. Absorption was measured at 450 nm. Candidate peptides that show a high exchange yield (preferably higher than 50%, most preferred higher than 75%) are generally preferred for a generation and production of antibodies or fragments thereof, and/or T cell receptors or fragments thereof, as they show sufficient avidity to the MHC molecules and prevent dissociation of the MHC complexes.
# [1] = system: CD8+ T cells of healthy HLA-A*02 donors; assay: In vitro immunogenicity: T-cell priming with aAPCs loaded with peptide/MHC complexes and anti-CD28 antibody, pMHC multimer readout; assay type: cell-based, human; settings: Table 10B
# From the text: In order to obtain information regarding the immunogenicity of the TUMAPs of the present invention, the inventors performed investigations using an in vitro T-cell priming assay based on repeated stimulations of CD8+ T cells with artificial antigen presenting cells (aAPCs) loaded with peptide/MHC complexes and anti-CD28 antibody.
# In order to perform in vitro stimulations by artificial antigen presenting cells loaded with peptide-MHC complex (pMHC) and anti-CD28 antibody, the inventors first isolated CD8+ T cells from fresh HLA-A*02 leukapheresis products via positive selection using CD8 microbeads (Miltenyi Biotec, Bergisch-Gladbach, Germany) of healthy donors obtained from the University clinics Mannheim, Germany, after informed consent.
# PBMCs and isolated CD8+ lymphocytes were incubated in T-cell medium (TCM) until use consisting of RPMI-Glutamax (Invitrogen, Karlsruhe, Germany) supplemented with 10% heat inactivated human AB serum (PAN-Biotech, Aidenbach, Germany), 100 U/ml Penicillin/100 μg/ml Streptomycin (Cambrex, Cologne, Germany), 1 mM sodium pyruvate (CC Pro, Oberdorla, Germany), 20 μg/ml Gentamycin (Cambrex). 2.5 ng/ml IL-7 (PromoCell, Heidelberg, Germany) and 10 U/ml IL-2 (Novartis Pharma, Nümberg, Germany) were also added to the TCM at this step.
# Generation of pMHC/anti-CD28 coated beads, T-cell stimulations and readout was performed in a highly defined in vitro system using four different pMHC molecules per stimulation condition and 8 different pMHC molecules per readout condition.
# The purified co-stimulatory mouse IgG2a anti human CD28 Ab 9.3 (Jung et al., 1987) was chemically biotinylated using Sulfo-N-hydroxysuccinimidobiotin as recommended by the manufacturer (Perbio, Bonn, Germany). Beads used were 5.6 μm diameter streptavidin coated polystyrene particles (Bangs Laboratories, Illinois, USA).
# pMHC used for positive and negative control stimulations were A*0201/MLA-001 (peptide […] (SEQ ID NO. 152) from modified Melan-A/MART-1) and A*0201/DDX5-001 ([…] from DDX5 (SEQ ID NO. 153)), respectively.
# 800.000 beads/200 μl were coated in 96-well plates in the presence of 4×12.5 ng different biotin-pMHC, washed and 600 ng biotin anti-CD28 were added subsequently in a volume of 200 μl. Stimulations were initiated in 96-well plates by co-incubating […] CD8+ T cells with 2×10^5 washed coated beads in 200 μl TCM supplemented with 5 ng/ml IL-12 (PromoCell) for 3 days at 37° C. Half of the medium was then exchanged by fresh TCM supplemented with 80 U/ml IL-2 and incubating was continued for 4 days at 37° C. This stimulation cycle was performed for a total of three times. For the pMHC multimer readout using 8 different pMHC molecules per condition, a two-dimensional combinatorial coding approach was used as previously described (Andersen et al., 2012) with minor modifications encompassing coupling to 5 different fluorochromes. Finally, multimeric analyses were performed by staining the cells with Live/dead near IR dye (Invitrogen, Karlsruhe, Germany), CD8-FITC antibody clone SK1 (BD, Heidelberg, Germany) and fluorescent pMHC multimers. For analysis, a BD LSRII SORP cytometer equipped with appropriate lasers and filters was used. Peptide specific cells were calculated as percentage of total CD8+ cells. Evaluation of multimeric analysis was done using the FlowJo software (Tree Star, Oregon, USA). In vitro priming of specific multimer+ CD8+ lymphocytes was detected by comparing to negative control stimulations.
Substance,Peptide exchange (MHC class I binding score) (HLA-A*02:01),Wells positive [%] [1]
95 (KLTDVGIATL; listed as Homo sapiens) [compound 95],++ (≥20% = ++),++++ (> = 70% = ++++)
9 (ILLQKPDSV; listed as Homo sapiens) [compound 9],++ (≥20% = ++),+ (<20% = +)
